Assay results published in patent publication US20200123233A1.

B1: 214-E8 15GS 212-C12 (VHH)
chain: EVQLVESGGGSVQAGGSLRLSCAASGGTFNPYVMAWFRQAPGNEREFVARIRWSGGDAYYDDSVKGRFAITRDAAKNTVHLQMNSLKPEDTAVYYCAAATYGYGSYTYGGSYDLWGQGTQVTVSSGGGGSGGGGSGGGGSEVQLVESGGGLVQPGGSLRLSCAASGFTFGSSDMSWVRQAPGKGPEWVSGINSGGGRTLYADSVKGRFTISRDNAKNTLYLQMNSLKSEDTAVYYCATDLYGSSWYTDYWSQGTQVTVSS
B2: 213-E6 25GS 214-E8 (VHH)
chain: EVQLVESGGGLVQAGASLRLSCAASGSTLSRYGVGWFRQAPGKERELVASVDWSGSRTYYADSVKGRFTISRDNAKNTGYLQMNSLKPDDTAVYYCAADSSVVPGIEKYDDWGLGTQVTVSSGGGGSGGGGSGGGGSGGGGSGGGGSEVQLVESGGGSVQAGGSLRLSCAASGGTFNPYVMAWFRQAPGNEREFVARIRWSGGDAYYDDSVKGRFAITRDAAKNTVHLQMNSLKPEDTAVYYCAAATYGYGSYTYGGSYDLWGQGTQVTVSS
B3: 213-E6 25GS 213-E6 (VHH)
chain: EVQLVESGGGLVQAGASLRLSCAASGSTLSRYGVGWFRQAPGKERELVASVDWSGSRTYYADSVKGRFTISRDNAKNTGYLQMNSLKPDDTAVYYCAADSSVVPGIEKYDDWGLGTQVTVSSGGGGSGGGGSGGGGSGGGGSGGGGSEVQLVESGGGLVQAGASLRLSCAASGSTLSRYGVGWFRQAPGKERELVASVDWSGSRTYYADSVKGRFTISRDNAKNTGYLQMNSLKPDDTAVYYCAADSSVVPGIEKYDDWGLGTQVTVSS
B4: 214-F8 15GS 214-F8 (VHH)
chain: EVQLVESGGDLVQAGGSLRLSCVASGSTYSINAMGWYRQAPGKLRELVAAFRTGGSTDYADSVKGRFTISRDTAKNTVYLQMNSLKPEDTAVYYCNAEVIYYPYDYWGQGTQVTVSSGGGGSGGGGSGGGGSEVQLVESGGDLVQAGGSLRLSCVASGSTYSINAMGWYRQAPGKLRELVAAFRTGGSTDYADSVKGRFTISRDTAKNTVYLQMNSLKPEDTAVYYCNAEVIYYPYDYWGQGTQVTVSS
B5: 213-H7 15GS 213-H7 (VHH)
chain: EVQLVESGGGLVQAGGSLRLSCAASGRTLSSYRMGWFRQAPGKEREFISTISWNGRSTYYADSVKGRFIFSEDNAKNTVYLQMNSLKPEDTAVYYCAAALIGGYYSDVDAWSYWGPGTQVTVSSGGGGSGGGGSGGGGSEVQLVESGGGLVQAGGSLRLSCAASGRTLSSYRMGWFRQAPGKEREFISTISWNGRSTYYADSVKGRFIFSEDNAKNTVYLQMNSLKPEDTAVYYCAAALIGGYYSDVDAWSYWGPGTQVTVSS
B6: 213-E6 15GS 213-H7 (VHH)
chain: EVQLVESGGGLVQAGASLRLSCAASGSTLSRYGVGWFRQAPGKERELVASVDWSGSRTYYADSVKGRFTISRDNAKNTGYLQMNSLKPDDTAVYYCAADSSVVPGIEKYDDWGLGTQVTVSSGGGGSGGGGSGGGGSEVQLVESGGGLVQAGGSLRLSCAASGRTLSSYRMGWFRQAPGKEREFISTISWNGRSTYYADSVKGRFIFSEDNAKNTVYLQMNSLKPEDTAVYYCAAALIGGYYSDVDAWSYWGPGTQVTVSS
B7: 213-E6 25GS 212-C12 (VHH)
chain: EVQLVESGGGLVQAGASLRLSCAASGSTLSRYGVGWFRQAPGKERELVASVDWSGSRTYYADSVKGRFTISRDNAKNTGYLQMNSLKPDDTAVYYCAADSSVVPGIEKYDDWGLGTQVTVSSGGGGSGGGGSGGGGSGGGGSGGGGSEVQLVESGGGLVQPGGSLRLSCAASGFTFGSSDMSWVRQAPGKGPEWVSGINSGGGRTLYADSVKGRFTISRDNAKNTLYLQMNSLKSEDTAVYYCATDLYGSSWYTDYWSQGTQVTVSS
B8: 213-E6 5GS 212-C12 (VHH)
chain: EVQLVESGGGLVQAGASLRLSCAASGSTLSRYGVGWFRQAPGKERELVASVDWSGSRTYYADSVKGRFTISRDNAKNTGYLQMNSLKPDDTAVYYCAADSSVVPGIEKYDDWGLGTQVTVSSGGGGSEVQLVESGGGLVQPGGSLRLSCAASGFTFGSSDMSWVRQAPGKGPEWVSGINSGGGRTLYADSVKGRFTISRDNAKNTLYLQMNSLKSEDTAVYYCATDLYGSSWYTDYWSQGTQVTVSS
B9: NB6-18GS-NB6 (VHH)
chain: EVQLVESGGGLVQAGGSLRLSCAASGPTFSADTMGWFRQAPGKEREFVATIPWSGGIAYYSDSVKGRFTMSRDNAKNTVDLQMNSLKPEDTALYYCAGSSRIYIYSDSLSERSYDYWGQGTQVTVSSGGGGSGGGGSGGGGGGGSEVQLVESGGGLVQAGGSLRLSCAASGPTFSADTMGWFRQAPGKEREFVATIPWSGGIAYYSDSVKGRFTMSRDNAKNTVDLQMNSLKPEDTALYYCAGSSRIYIYSDSLSERSYDYWGQGTQVTVSSAAAEQKLISEEDLNGAAHHHHHH
B10: 214-E8 15GS 213-H7 (VHH)
chain: EVQLVESGGGSVQAGGSLRLSCAASGGTFNPYVMAWFRQAPGNEREFVARIRWSGGDAYYDDSVKGRFAITRDAAKNTVHLQMNSLKPEDTAVYYCAAATYGYGSYTYGGSYDLWGQGTQVTVSSGGGGSGGGGSGGGGSEVQLVESGGGLVQAGGSLRLSCAASGRTLSSYRMGWFRQAPGKEREFISTISWNGRSTYYADSVKGRFIFSEDNAKNTVYLQMNSLKPEDTAVYYCAAALIGGYYSDVDAWSYWGPGTQVTVSS
B11: 214-E8 25GS 212-C12 (VHH)
chain: EVQLVESGGGSVQAGGSLRLSCAASGGTFNPYVMAWFRQAPGNEREFVARIRWSGGDAYYDDSVKGRFAITRDAAKNTVHLQMNSLKPEDTAVYYCAAATYGYGSYTYGGSYDLWGQGTQVTVSSGGGGSGGGGSGGGGSGGGGSGGGGSEVQLVESGGGLVQPGGSLRLSCAASGFTFGSSDMSWVRQAPGKGPEWVSGINSGGGRTLYADSVKGRFTISRDNAKNTLYLQMNSLKSEDTAVYYCATDLYGSSWYTDYWSQGTQVTVSS
B12: 214-E8 5GS 212-C12 (VHH)
chain: EVQLVESGGGSVQAGGSLRLSCAASGGTFNPYVMAWFRQAPGNEREFVARIRWSGGDAYYDDSVKGRFAITRDAAKNTVHLQMNSLKPEDTAVYYCAAATYGYGSYTYGGSYDLWGQGTQVTVSSGGGGSEVQLVESGGGLVQPGGSLRLSCAASGFTFGSSDMSWVRQAPGKGPEWVSGINSGGGRTLYADSVKGRFTISRDNAKNTLYLQMNSLKSEDTAVYYCATDLYGSSWYTDYWSQGTQVTVSS
B13: LG212C12 (VHH)
VHH: EVQLVESGGGLVQPGGSLRLSCAASGFTFGSSDMSWVRQAPGKGPEWVSGINSGGGRTLYADSVKGRFTISRDNAKNTLYLQMNSLKSEDTAVYYCATDLYGSSWYTDYWSQGTQVTVSS
B14: LG212B12 (VHH)
VHH: EVQLVESGGGLVQPGGSLRLSCAASGFTFGNYDMSWVRQAPGKGPEWVSGINTGGSTLYADSVKGRFTISRDNAKNTLYLQMNSLKSEDTAVYYCAKDLYGSTWYTDYWSQGTQVTVSS
B15: LG212F6 (VHH)
VHH: EVQLVESGGGLVQPGGSLRLSCAASGFTFGSYDMSWVRQAPGKGSEWVSHINTGGGSTTYADSVKGRFTISRDNAKNTLYLQMSSLKPEDTAVYYCATGLYGGSTDDYWGQGTQVTVSS

Molecular target: Rabies virus glycoprotein G, strain CVS-11 (Challenge Virus Standard-11, ATCC VR 959) (Rabies virus, strain CVS-11)
Experiment: cell-based or functional assay

| Binder | CVS neutralizing antibody titre (RFFIT): IU/mg [IU/mg] | CVS neutralizing antibody titre (RFFIT): IU/ml [IU/ml] | CVS neutralizing antibody titre (RFFIT): IU/nM [IU/nM] | CVS neutralizing antibody titre (RFFIT): nM IC50 [nM] | Potency (IU/nM) increase versus monovalent [fold] |
| --- | --- | --- | --- | --- | --- |
| B1 | 322 | 998 | 8.7 | 3.69 | 8 |
| B2 | 657 | 46 | 1.84 | 1.68 | 2.3 |
| B3 | 300 | 21 | 8.29 | 3.76 | 6.4 |
| B4 | 650 | 13 | 17.2 | 1.79 | 63.7 |
| B5 | 549 | 412 | 15.4 | 2.09 | 34.2 |
| B6 | 4250 | 3760 | 93.7 | 0.26 | 107 |
| B7 | 248 | 1290 | 6.7 | 4.79 | 4.2 |
| B8 | 385 | 385 | 10 | 3.21 | 6.3 |
| B9 | < 2.38 | < 0.5 | < 0.07 | > 725 | – |
| B10 | 8220 | 1890 | 230 | 0.14 | 605 |
| B11 | 573 | 70.5 | 1.6 | 1.94 | 1.5 |
| B12 | 214 | 171 | 5.68 | 5.65 | 5.2 |

Molecular target: Rabies virus glycoprotein G, Challenge Virus Standard (CVS)-11 strain (Rabies virus, strain CVS-11 (genotype 1 Lyssavirus)) (UniProt O92284)
Experiment: cell-based or functional assay

Sequence of Rabies virus glycoprotein G, Challenge Virus Standard (CVS)-11 strain (Rabies virus, strain CVS-11 (genotype 1 Lyssavirus)) (O92284 20-524 limits assumed): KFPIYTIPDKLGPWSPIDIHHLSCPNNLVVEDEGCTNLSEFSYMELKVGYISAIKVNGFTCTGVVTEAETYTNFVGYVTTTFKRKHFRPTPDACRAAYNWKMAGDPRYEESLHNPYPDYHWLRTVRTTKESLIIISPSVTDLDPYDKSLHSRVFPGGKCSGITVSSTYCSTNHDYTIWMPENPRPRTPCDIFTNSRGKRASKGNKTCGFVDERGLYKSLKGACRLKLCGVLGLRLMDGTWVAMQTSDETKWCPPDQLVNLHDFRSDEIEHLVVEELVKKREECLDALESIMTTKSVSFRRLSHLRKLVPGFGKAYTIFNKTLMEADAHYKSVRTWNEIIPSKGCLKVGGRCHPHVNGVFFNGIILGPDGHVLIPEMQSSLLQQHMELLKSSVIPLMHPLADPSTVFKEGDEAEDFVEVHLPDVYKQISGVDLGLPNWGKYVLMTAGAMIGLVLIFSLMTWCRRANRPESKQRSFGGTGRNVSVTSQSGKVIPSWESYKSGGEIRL

| Binder | CVS-11 neutralizing antibody titer (RFFIT), IU/mg [IU/mg] | CVS-11 neutralizing antibody titer (RFFIT), IU/ml [IU/ml] | CVS-11 neutralizing antibody titer (RFFIT), IU/µM [IU/µM] | CVS-11 neutralizing antibody titer (RFFIT), nM IC50 [nM] |
| --- | --- | --- | --- | --- |
| B13 | 308 | 394 | 4.6 | 7.55 |
| B14 | 20 | 31 | 0.3 | 101 |
| B15 | 114 | 122 | 1.71 | 17.7 |
